# Laboratory results taken from patent publication EP4631972A1, “SITE-SPECIFIC COUPLED PEGYLATED INTERLEUKIN-2 MUTANT WITH RECEPTOR AFFINITY PREFERENCE AND USE THEREOF” (priority 2022, dated 2024).
# T1: IL-2βγ dual receptor (Homo sapiens, UniProt P14784+P31785)
# T1 construct: Uniprot P14784 1Met-551Val was constructed into plasmid pcDNA3.1(+); Uniprot P31785 1Met-551Thr was constructed into plasmid pcDNA3.1/zeo; expressed in transfected cells; host or cells: 293EC18 cells, transient co-transfection with pCMV/JAK3 and PGL4.52/STAT5RE
# T1 sequence (P14784 27-551): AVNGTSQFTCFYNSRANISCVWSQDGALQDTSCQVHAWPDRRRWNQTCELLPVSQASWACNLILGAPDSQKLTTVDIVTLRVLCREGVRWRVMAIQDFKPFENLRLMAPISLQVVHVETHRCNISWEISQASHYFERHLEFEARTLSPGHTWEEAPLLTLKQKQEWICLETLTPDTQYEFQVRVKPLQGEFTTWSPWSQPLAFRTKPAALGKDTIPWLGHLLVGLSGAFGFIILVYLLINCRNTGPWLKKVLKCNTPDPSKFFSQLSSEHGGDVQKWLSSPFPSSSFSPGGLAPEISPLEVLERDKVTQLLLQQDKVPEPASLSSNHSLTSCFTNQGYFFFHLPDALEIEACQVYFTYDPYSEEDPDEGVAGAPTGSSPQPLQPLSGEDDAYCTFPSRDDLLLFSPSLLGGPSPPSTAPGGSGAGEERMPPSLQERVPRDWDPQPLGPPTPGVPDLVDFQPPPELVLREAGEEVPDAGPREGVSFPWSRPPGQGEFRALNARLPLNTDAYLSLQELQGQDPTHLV
# T1 sequence (P31785 23-369): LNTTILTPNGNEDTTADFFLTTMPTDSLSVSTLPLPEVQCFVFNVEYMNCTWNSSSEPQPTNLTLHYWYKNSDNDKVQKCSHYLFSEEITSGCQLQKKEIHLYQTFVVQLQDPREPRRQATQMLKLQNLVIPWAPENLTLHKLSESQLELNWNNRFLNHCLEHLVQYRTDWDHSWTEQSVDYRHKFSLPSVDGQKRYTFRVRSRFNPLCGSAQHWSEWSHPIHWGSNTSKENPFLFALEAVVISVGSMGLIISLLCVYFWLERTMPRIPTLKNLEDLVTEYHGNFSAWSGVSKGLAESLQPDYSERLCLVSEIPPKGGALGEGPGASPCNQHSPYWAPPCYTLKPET
# B1: 80K-1PEG-IL2-N88R-N77C: IL-2 mutant N88R, N77C, conjugation site 77, PEG molecular weight 80kD (conjugate)
# chain: APTSSSTKKTQLQLEHLLLDLQMILNGINNYKNPKLTRMLTFKFYMPKKATELKHLQCLEEELKPLEEVLNLAQSKC(PEG 80 kDa)FHLRPRDLISRINVIVLELKGSETTFMCEYADETATIVEFLNRWITFSQSIISTLT
# Biological target: T1, IL-2βγ dual receptor
# Assay: STAT5 reporter gene assay, activation of IL-2βγ dual receptor in 293EC18/βγ/JAK3/STAT5 cells
# Assay type: cell-based
# Details: for activation effect on the IL-2Rβγ dual receptor compared with control IL-2 N88R: Figure 1, concentration of 65.2 nM
# Method: Since the binding of IL-2 to the β and γ subunits of its receptor induces STAT5 phosphorylation, which subsequently leads to dimerization and translocation into the nucleus to promote target gene transcription, this example evaluates the ability of the mutant IL-2 polypeptides to induce signaling through the IL-2 receptor by measuring STAT5 phosphorylation.
# Adherent 293EC18 cells were cultured to about 90% confluence using conventional methods. After trypsin digestion, the cells were resuspended in cell culture medium to 4×10^5 cells/ml and 50 µl/well were added to two 96-well cell culture plates. After incubation at 37°C for 48 h, the supernatant was aspirated and fresh culture medium was added. According to the manufacturer's method, four plasmids, pcDNA3.1(+)/CD122 (constructed by Nanjing Novoacine Biotechnology Co., Ltd, Uniprot P14784 1Met-551Val was constructed into plasmid pcDNA3.1(+)), pcDNA3.1/puro/CD132 (constructed by Nanjing Novoacine Biotechnology Co., Ltd, Uniprot P31785 1Met-551Thr was constructed into plasmid pcDNA3.1/zeo), pCMV/JAK3 (Sino Biological), and PGL4.52/STAT5RE (Promega) were transiently transfected into 293EC18 cells using a cationic transfection reagent (ExFect Transfection Reagent, Vazyme). The obtained cells were named 293EC18/βγ/JAK3/STAT5 cells. Alternatively, five plasmids, pcDNA3.1/zeo/CD25 (constructed by Nanjing Novoacine Biotechnology Co., Ltd, Uniprot P01589 1Met-551Ile constructed into plasmid pcDNA3.1/zeo), pcDNA3.1(+)/CD122 (constructed by Nanjing Novoacine Biotechnology Co., Ltd, Uniprot P14784 1Met-551Val constructed into plasmid pcDNA3.1(+)), pcDNA3.1/puro/CD132 (constructed by Nanjing Novoacine Biotechnology Co., Ltd, UniprotP31785 1Met-551Thr constructed into plasmid pcDNA3.1/zeo), pCMV/JAK3 (Sino Biological), and PGL4.52/STAT5RE (Promega) were transiently transferred into 293EC18 cells, and the obtained cells were named 293EC18/αβγ/JAK3/STAT5 cells. The transfected cells were incubated at 37°C and 5% CO2 for another 6 h.
# Each IL2 mutant was diluted 4-fold in a gradient manner using PBS buffer, with a total of 11 dilutions and a starting concentration of 65.2 nM. In the above cell culture plates, 50 µl/well of each of the serially diluted IL2 mutant samples was added in duplicate. Then, the cell culture plate was placed in an incubator at 37°C and 5% CO2 for overnight culture. The cell culture plates were kept at room temperature for 20 ± 5 minutes to equilibrate the plates to room temperature. Bio-Lite Luciferase Assay System reagents that have been mixed and equilibrated to room temperature were added to the cell culture plates to be tested at 100 µl/well, placed on a microplate shaker at 450 rpm to mix for 2 minutes, then allowed to stand at room temperature for 3 minutes, and the chemiluminescence value was detected with an enzyme plate reader.
# The logarithm of the final concentration of each IL-2 mutant sample was used as the X-axis, and the chemiluminescence detection results were used as the Y-axis for plotting. Data were analyzed using the four-parameter logistic regression model in GraphPad Prism 9. Table 2 EC50 values for the activation of the IL-2αβγ triple receptor by PEG-IL-2 mutants as determined by a reporter gene assay.
# According to the method of Example 3, each polyethylene glycol-modified mutant obtained in this example was assessed for the binding preference to the IL2 receptors by a reporter assay. Table 4 EC50 values for the activation of the IL-2αβγ triple receptor by PEG-IL-2 mutants as determined by a reporter gene assay.
# Referring to Example 3, the phosphorylation of STAT5 was used to evaluate the ability of the PEG-modified IL-2 mutants having a non-natural amino acid mutation prepared in Example 14 to induce signal transduction via the IL-2 receptor. […]
molecule,measurement,setting,value
B1,activation effect on the IL-2Rβγ dual receptor compared with control IL-2 N88R,,lower activation effects
same,activation effect on the IL-2Rβγ dual receptor compared with control IL-2 N88R,listed as 80k-PEG-IL2-N88R-N77C,the most significant reduction in activation ability
same,activation effect on / affinity to IL-2Rβγ dual receptor compared with control IL-2 N88R,"Figure 2, all concentrations",further reduced the affinity to IL-2Rβγ
